Laboratory results from patent US20100055121A1 (US Dept. of Health and Human Services, published 2010).

Assays:
[1] = target: T1, HLA-A0201 molecules on T2 (HLA-A2+) cells (human); assay: T2 cells loaded with 25 µM peptide, brefeldin A chase, HLA-A02 flow cytometry over time
T1 construct: whole, on cells; MHC class I molecule on T2 cells; also called HLA-A2.1
Description: (§1) HLA-A2 binding assay. […] T2 cells (1×10⁶) in serum-free Iscove's modified Dulbecco's medium were incubated in the presence of various concentrations of each peptide, in 24-well culture plates at 37° C. with 5% CO₂. After 18 hours in culture, T2 cells were harvested, washed with 1× phosphate buffered saline (PBS) (Invitrogen) and stained with 20 μl of a FITC-conjugated anti-HLA-A02-specific monoclonal antibody (MAb) (One Lambda, Inc., Canoga Park, Calif.). A FITC-conjugated IgG2a MAb (BD Biosciences, San Jose, Calif.) was used as an isotype control. Data acquisition and analysis were conducted on a FACSCalibur™ system using the CELLQueSt™ software (BD Biosciences). Results were expressed as mean fluorescence intensity (MFI) collected on a log scale. […] Assuming first order kinetics, the log₂ of MFI/MFI₀ (MFI is the fluorescence at each time point and MFI₀ the initial fluorescence at time 0) was plotted against time (minutes). The decay rate constant was calculated as the slope of the linear regression for each curve and the half-life of each peptide-MHC complex was calculated as […].
In silico-predicted epitopes were then assessed for binding to the MHC molecules in a cell-based assay. TAP-deficient T2 (HLA-A2+) cells were incubated in the presence of 25 μM of each peptide and subsequently tested for cell surface MHC-stabilization by bound peptides.

[2] = target: T1, HLA-A0201 molecules on T2 (HLA-A2+) …; assay: T2 cell surface HLA-A02 stabilisation, flow cytometry, 25 µM peptide
Description: as §1
In silico-predicted epitopes were then assessed for binding to the MHC molecules in a cell-based assay. […]

| half-life of MHC-peptide complex [1] [h] | binding result [2] | Binder |
| --- | --- | --- |
| 8.57 |  | WLLPGTSTL (Synthesized at >90% purity) [Brachyury peptide T-p2] |
| 5.2 |  | AMYSFLLDFV (Synthesized at >90% purity) [Brachyury peptide T-p4] |
|  | binds | SQYPSLWSV [Brachyury peptide T-p1] |
| 3.75 |  | RLIASWTPV (Synthesized at >90% purity) [Brachyury peptide T-p3] |
